Assay results: patent publication US20210388087A1

Molecular target: Human CD137 ECD (human)
Assay: SPR, vs parent H183/L072

Chain of Human CD137 ECD (human) (chain, as listed by the source limits assumed): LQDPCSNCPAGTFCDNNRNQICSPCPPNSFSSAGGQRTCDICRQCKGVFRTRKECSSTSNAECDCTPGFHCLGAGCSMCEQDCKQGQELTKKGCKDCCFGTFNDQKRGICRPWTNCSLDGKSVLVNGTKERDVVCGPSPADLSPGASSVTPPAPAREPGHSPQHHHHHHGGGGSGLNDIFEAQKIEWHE

Binder	fold change of affinity [fold]
dBBDu183H H93V / dBBDu072L (antibody, name in Kabat numbering, V domains shown) VH: QVQLVESGGGLVQPGRSLRLSCAASGFTFSNAWMHWVRQAPGKGLEWVAQIKDKGNAYAAYYAPSVKGRFTISRDDSKNSIYLQMNSLKTEDTAVYYCVYVHYASASTVLPAFGVDAWGQGTTVTVSS VL: DIVMTQSPLSLPVTPGEPASISCQASQELVHMNRNTYLHWYQQKPGQAPRLLIYKVSNRFPGVPDRFSGSGSGTDFTLKISRVEAEDVGVYYCAQGTSVPFTFGQGTKLEIK	0
dBBDu183H S99V / dBBDu072L (antibody, name in Kabat numbering, V domains shown) VH: QVQLVESGGGLVQPGRSLRLSCAASGFTFSNAWMHWVRQAPGKGLEWVAQIKDKGNAYAAYYAPSVKGRFTISRDDSKNSIYLQMNSLKTEDTAVYYCHYVHYAVASTVLPAFGVDAWGQGTTVTVSS VL: DIVMTQSPLSLPVTPGEPASISCQASQELVHMNRNTYLHWYQQKPGQAPRLLIYKVSNRFPGVPDRFSGSGSGTDFTLKISRVEAEDVGVYYCAQGTSVPFTFGQGTKLEIK	0
dBBDu183H H96G / dBBDu072L (antibody, name in Kabat numbering, V domains shown) VH: QVQLVESGGGLVQPGRSLRLSCAASGFTFSNAWMHWVRQAPGKGLEWVAQIKDKGNAYAAYYAPSVKGRFTISRDDSKNSIYLQMNSLKTEDTAVYYCHYVGYASASTVLPAFGVDAWGQGTTVTVSS VL: DIVMTQSPLSLPVTPGEPASISCQASQELVHMNRNTYLHWYQQKPGQAPRLLIYKVSNRFPGVPDRFSGSGSGTDFTLKISRVEAEDVGVYYCAQGTSVPFTFGQGTKLEIK	0
dBBDu183H P100eV / dBBDu072L (antibody, name in Kabat numbering, V domains shown) VH: QVQLVESGGGLVQPGRSLRLSCAASGFTFSNAWMHWVRQAPGKGLEWVAQIKDKGNAYAAYYAPSVKGRFTISRDDSKNSIYLQMNSLKTEDTAVYYCHYVHYASASTVLVAFGVDAWGQGTTVTVSS VL: DIVMTQSPLSLPVTPGEPASISCQASQELVHMNRNTYLHWYQQKPGQAPRLLIYKVSNRFPGVPDRFSGSGSGTDFTLKISRVEAEDVGVYYCAQGTSVPFTFGQGTKLEIK	0
dBBDu183H G100hV / dBBDu072L (antibody, name in Kabat numbering, V domains shown) VH: QVQLVESGGGLVQPGRSLRLSCAASGFTFSNAWMHWVRQAPGKGLEWVAQIKDKGNAYAAYYAPSVKGRFTISRDDSKNSIYLQMNSLKTEDTAVYYCHYVHYASASTVLPAFVVDAWGQGTTVTVSS VL: DIVMTQSPLSLPVTPGEPASISCQASQELVHMNRNTYLHWYQQKPGQAPRLLIYKVSNRFPGVPDRFSGSGSGTDFTLKISRVEAEDVGVYYCAQGTSVPFTFGQGTKLEIK	0
dBBDu183H A98G / dBBDu072L (antibody, name in Kabat numbering, V domains shown) VH: QVQLVESGGGLVQPGRSLRLSCAASGFTFSNAWMHWVRQAPGKGLEWVAQIKDKGNAYAAYYAPSVKGRFTISRDDSKNSIYLQMNSLKTEDTAVYYCHYVHYGSASTVLPAFGVDAWGQGTTVTVSS VL: DIVMTQSPLSLPVTPGEPASISCQASQELVHMNRNTYLHWYQQKPGQAPRLLIYKVSNRFPGVPDRFSGSGSGTDFTLKISRVEAEDVGVYYCAQGTSVPFTFGQGTKLEIK	0
dBBDu183H H93G / dBBDu072L (antibody, name in Kabat numbering, V domains shown) VH: QVQLVESGGGLVQPGRSLRLSCAASGFTFSNAWMHWVRQAPGKGLEWVAQIKDKGNAYAAYYAPSVKGRFTISRDDSKNSIYLQMNSLKTEDTAVYYCGYVHYASASTVLPAFGVDAWGQGTTVTVSS VL: DIVMTQSPLSLPVTPGEPASISCQASQELVHMNRNTYLHWYQQKPGQAPRLLIYKVSNRFPGVPDRFSGSGSGTDFTLKISRVEAEDVGVYYCAQGTSVPFTFGQGTKLEIK	0
dBBDu183H S100aG / dBBDu072L (antibody, name in Kabat numbering, V domains shown) VH: QVQLVESGGGLVQPGRSLRLSCAASGFTFSNAWMHWVRQAPGKGLEWVAQIKDKGNAYAAYYAPSVKGRFTISRDDSKNSIYLQMNSLKTEDTAVYYCHYVHYASAGTVLPAFGVDAWGQGTTVTVSS VL: DIVMTQSPLSLPVTPGEPASISCQASQELVHMNRNTYLHWYQQKPGQAPRLLIYKVSNRFPGVPDRFSGSGSGTDFTLKISRVEAEDVGVYYCAQGTSVPFTFGQGTKLEIK	0
dBBDu183H S100aV / dBBDu072L (antibody, name in Kabat numbering, V domains shown) VH: QVQLVESGGGLVQPGRSLRLSCAASGFTFSNAWMHWVRQAPGKGLEWVAQIKDKGNAYAAYYAPSVKGRFTISRDDSKNSIYLQMNSLKTEDTAVYYCHYVHYASAVTVLPAFGVDAWGQGTTVTVSS VL: DIVMTQSPLSLPVTPGEPASISCQASQELVHMNRNTYLHWYQQKPGQAPRLLIYKVSNRFPGVPDRFSGSGSGTDFTLKISRVEAEDVGVYYCAQGTSVPFTFGQGTKLEIK	0
dBBDu183H A100fV / dBBDu072L (antibody, name in Kabat numbering, V domains shown) VH: QVQLVESGGGLVQPGRSLRLSCAASGFTFSNAWMHWVRQAPGKGLEWVAQIKDKGNAYAAYYAPSVKGRFTISRDDSKNSIYLQMNSLKTEDTAVYYCHYVHYASASTVLPVFGVDAWGQGTTVTVSS VL: DIVMTQSPLSLPVTPGEPASISCQASQELVHMNRNTYLHWYQQKPGQAPRLLIYKVSNRFPGVPDRFSGSGSGTDFTLKISRVEAEDVGVYYCAQGTSVPFTFGQGTKLEIK	0
dBBDu183H A100V / dBBDu072L (antibody, name in Kabat numbering, V domains shown) VH: QVQLVESGGGLVQPGRSLRLSCAASGFTFSNAWMHWVRQAPGKGLEWVAQIKDKGNAYAAYYAPSVKGRFTISRDDSKNSIYLQMNSLKTEDTAVYYCHYVHYASVSTVLPAFGVDAWGQGTTVTVSS VL: DIVMTQSPLSLPVTPGEPASISCQASQELVHMNRNTYLHWYQQKPGQAPRLLIYKVSNRFPGVPDRFSGSGSGTDFTLKISRVEAEDVGVYYCAQGTSVPFTFGQGTKLEIK	0
dBBDu183H A98V / dBBDu072L (antibody, name in Kabat numbering, V domains shown) VH: QVQLVESGGGLVQPGRSLRLSCAASGFTFSNAWMHWVRQAPGKGLEWVAQIKDKGNAYAAYYAPSVKGRFTISRDDSKNSIYLQMNSLKTEDTAVYYCHYVHYVSASTVLPAFGVDAWGQGTTVTVSS VL: DIVMTQSPLSLPVTPGEPASISCQASQELVHMNRNTYLHWYQQKPGQAPRLLIYKVSNRFPGVPDRFSGSGSGTDFTLKISRVEAEDVGVYYCAQGTSVPFTFGQGTKLEIK	0
dBBDu183H D101V / dBBDu072L (antibody, name in Kabat numbering, V domains shown) VH: QVQLVESGGGLVQPGRSLRLSCAASGFTFSNAWMHWVRQAPGKGLEWVAQIKDKGNAYAAYYAPSVKGRFTISRDDSKNSIYLQMNSLKTEDTAVYYCHYVHYASASTVLPAFGVVAWGQGTTVTVSS VL: DIVMTQSPLSLPVTPGEPASISCQASQELVHMNRNTYLHWYQQKPGQAPRLLIYKVSNRFPGVPDRFSGSGSGTDFTLKISRVEAEDVGVYYCAQGTSVPFTFGQGTKLEIK	0
dBBDu183H A102V / dBBDu072L (antibody, name in Kabat numbering, V domains shown) VH: QVQLVESGGGLVQPGRSLRLSCAASGFTFSNAWMHWVRQAPGKGLEWVAQIKDKGNAYAAYYAPSVKGRFTISRDDSKNSIYLQMNSLKTEDTAVYYCHYVHYASASTVLPAFGVDVWGQGTTVTVSS VL: DIVMTQSPLSLPVTPGEPASISCQASQELVHMNRNTYLHWYQQKPGQAPRLLIYKVSNRFPGVPDRFSGSGSGTDFTLKISRVEAEDVGVYYCAQGTSVPFTFGQGTKLEIK	0

More lines, now with the values ahead:

fold change of affinity [fold]	Binder
0	dBBDu183H Y94G / dBBDu072L (antibody, name in Kabat numbering, V domains shown) VH: QVQLVESGGGLVQPGRSLRLSCAASGFTFSNAWMHWVRQAPGKGLEWVAQIKDKGNAYAAYYAPSVKGRFTISRDDSKNSIYLQMNSLKTEDTAVYYCHGVHYASASTVLPAFGVDAWGQGTTVTVSS VL: DIVMTQSPLSLPVTPGEPASISCQASQELVHMNRNTYLHWYQQKPGQAPRLLIYKVSNRFPGVPDRFSGSGSGTDFTLKISRVEAEDVGVYYCAQGTSVPFTFGQGTKLEIK
0	dBBDu183H T100bG / dBBDu072L (antibody, name in Kabat numbering, V domains shown) VH: QVQLVESGGGLVQPGRSLRLSCAASGFTFSNAWMHWVRQAPGKGLEWVAQIKDKGNAYAAYYAPSVKGRFTISRDDSKNSIYLQMNSLKTEDTAVYYCHYVHYASASGVLPAFGVDAWGQGTTVTVSS VL: DIVMTQSPLSLPVTPGEPASISCQASQELVHMNRNTYLHWYQQKPGQAPRLLIYKVSNRFPGVPDRFSGSGSGTDFTLKISRVEAEDVGVYYCAQGTSVPFTFGQGTKLEIK
0	dBBDu183H V95G / dBBDu072L (antibody, name in Kabat numbering, V domains shown) VH: QVQLVESGGGLVQPGRSLRLSCAASGFTFSNAWMHWVRQAPGKGLEWVAQIKDKGNAYAAYYAPSVKGRFTISRDDSKNSIYLQMNSLKTEDTAVYYCHYGHYASASTVLPAFGVDAWGQGTTVTVSS VL: DIVMTQSPLSLPVTPGEPASISCQASQELVHMNRNTYLHWYQQKPGQAPRLLIYKVSNRFPGVPDRFSGSGSGTDFTLKISRVEAEDVGVYYCAQGTSVPFTFGQGTKLEIK
0	dBBDu183H Y94V / dBBDu072L (antibody, name in Kabat numbering, V domains shown) VH: QVQLVESGGGLVQPGRSLRLSCAASGFTFSNAWMHWVRQAPGKGLEWVAQIKDKGNAYAAYYAPSVKGRFTISRDDSKNSIYLQMNSLKTEDTAVYYCHVVHYASASTVLPAFGVDAWGQGTTVTVSS VL: DIVMTQSPLSLPVTPGEPASISCQASQELVHMNRNTYLHWYQQKPGQAPRLLIYKVSNRFPGVPDRFSGSGSGTDFTLKISRVEAEDVGVYYCAQGTSVPFTFGQGTKLEIK
0	dBBDu183H Y97G / dBBDu072L (antibody, name in Kabat numbering, V domains shown) VH: QVQLVESGGGLVQPGRSLRLSCAASGFTFSNAWMHWVRQAPGKGLEWVAQIKDKGNAYAAYYAPSVKGRFTISRDDSKNSIYLQMNSLKTEDTAVYYCHYVHGASASTVLPAFGVDAWGQGTTVTVSS VL: DIVMTQSPLSLPVTPGEPASISCQASQELVHMNRNTYLHWYQQKPGQAPRLLIYKVSNRFPGVPDRFSGSGSGTDFTLKISRVEAEDVGVYYCAQGTSVPFTFGQGTKLEIK
0	dBBDu183H T100bV / dBBDu072L (antibody, name in Kabat numbering, V domains shown) VH: QVQLVESGGGLVQPGRSLRLSCAASGFTFSNAWMHWVRQAPGKGLEWVAQIKDKGNAYAAYYAPSVKGRFTISRDDSKNSIYLQMNSLKTEDTAVYYCHYVHYASASVVLPAFGVDAWGQGTTVTVSS VL: DIVMTQSPLSLPVTPGEPASISCQASQELVHMNRNTYLHWYQQKPGQAPRLLIYKVSNRFPGVPDRFSGSGSGTDFTLKISRVEAEDVGVYYCAQGTSVPFTFGQGTKLEIK
0	dBBDu183H Y97V / dBBDu072L (antibody, name in Kabat numbering, V domains shown) VH: QVQLVESGGGLVQPGRSLRLSCAASGFTFSNAWMHWVRQAPGKGLEWVAQIKDKGNAYAAYYAPSVKGRFTISRDDSKNSIYLQMNSLKTEDTAVYYCHYVHVASASTVLPAFGVDAWGQGTTVTVSS VL: DIVMTQSPLSLPVTPGEPASISCQASQELVHMNRNTYLHWYQQKPGQAPRLLIYKVSNRFPGVPDRFSGSGSGTDFTLKISRVEAEDVGVYYCAQGTSVPFTFGQGTKLEIK
